Assay results taken from article PMC12513996 (Nature Communications, 2025).

B1: FIP200(1490–1594) (domain or fragment)
chain: SRHSEKIAIRDFQVGDLVLIILDERHDNYVLFTVSPTLYFLHSESLPALDLKPGEGASGASRRPWVLGKVMEKEYCQAKKAQNRFKVPLGTKFYRVKAVSWNKKV
B3: FIP200(1490–1594) of the crystallised FIP200 Claw/ATG16L1 FIR complex (domain or fragment)
chain: SRHSEKIAIRDFQVGDLVLIILDERHDNYVLFTVSPTLYFLHSESLPALDLKPGEGASGASRRPWVLGKVMEKEYCQAKKAQNRFKVPLGTKFYRVKAVSWNKKV

Assays:
ATG16L1(78–247) = ATG16L1(78–247) (human, UniProt Q676U5 78-247); assay: SEC-MALS
FIP200(1490–1594) = biological target: B1; assay: SEC
GST-[…]1 = GST-[…]1 (human, UniProt Q9H0R8 1-117); assay: SEC
Sequence of GST-[…]1 (Q9H0R8 whole entry): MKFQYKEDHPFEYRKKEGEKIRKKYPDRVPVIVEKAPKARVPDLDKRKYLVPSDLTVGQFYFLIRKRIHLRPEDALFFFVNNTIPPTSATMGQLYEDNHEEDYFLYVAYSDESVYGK

[1] = biological target: B3; assay: crystal structure
crystal structure = biological target: the molecule itself; assay: crystal structure

B1
stoichiometry N (ATG16L1(78–247)): 1

EQDDDIEVIVDET (domain or fragment) [Trx-tagged ATG16L1 FIR]
binding result (FIP200(1490–1594)): binds

B2: Trx-tagged ATG16L1(78–247) (domain or fragment)
chain: NDNQLQEMAQLRIKHQEELTELHKKRGELAQLVIDLNNQMQRKDREMQMNEAKIAECLQTISDLETECLDLRTKLCDLERANQTLKDEYDALQITFTALEGKLRKTTEENQELVTRWMAEKAQEANRLNAENEKDSRRRQARLQKELAEAAKEPLPVEQDDDIEVIVDET
binding result (GST-[…]1): binds

EQDDDIEVIVDET [ATG16L1(235–247) of the crystallised FIP200 Claw/ATG16L1 FIR complex]
binding result [1]: binds

B3
stoichiometry N (crystal structure): 2
